In patent US20240400701A1 (LANOVA MEDICINES DEVELOPMENT, published 2024):

T1: human AMHRII (anti-Mullerian hormone receptor type 2) (human, UniProt Q16671 18-573)
T1 construct: whole, on cells; also called AMHR2; human AMHR2
T1 sequence (looked up): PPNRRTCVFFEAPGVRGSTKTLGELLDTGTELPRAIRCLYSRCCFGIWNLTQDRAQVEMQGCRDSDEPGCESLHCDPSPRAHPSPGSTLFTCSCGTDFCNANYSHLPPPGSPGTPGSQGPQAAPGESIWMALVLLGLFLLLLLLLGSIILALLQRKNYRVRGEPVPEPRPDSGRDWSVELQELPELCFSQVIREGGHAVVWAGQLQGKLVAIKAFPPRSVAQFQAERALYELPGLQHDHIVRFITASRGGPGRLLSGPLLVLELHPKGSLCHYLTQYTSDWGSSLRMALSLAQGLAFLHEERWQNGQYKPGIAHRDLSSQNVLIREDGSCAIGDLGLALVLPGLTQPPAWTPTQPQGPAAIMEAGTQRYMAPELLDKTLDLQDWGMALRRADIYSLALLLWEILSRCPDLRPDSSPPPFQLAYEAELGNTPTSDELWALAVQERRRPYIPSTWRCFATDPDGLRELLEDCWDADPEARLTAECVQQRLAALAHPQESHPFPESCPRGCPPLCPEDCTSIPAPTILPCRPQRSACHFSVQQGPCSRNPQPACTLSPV


Assays:
[1] = target: T1, human AMHRII (anti-Mullerian hormone …); assay: FACS on CHO-K1 cells over-expressing human AMHR2
Experimental: (§1) CHO-K1 cells over-expressed AMHR2 were harvested from flasks. 100 μl of 1×10⁶ cells/ml of cells were incubated with the humanized antibodies in 3-fold serial dilutions starting from 300 nM to 0.001 nM for 30 minutes on ice. After being washed with 200 μl of FACS buffer twice, cells were incubated with secondary antibody for 30 minutes on ice. Cells were washed with 200 μl of FACS buffer twice and analyzed by FACS.

[2] = target: T1, human AMHRII (anti-Mullerian hormone …); assay: FACS on CHO-K1 cells over-expressing human AMHR2; remark: listed apart in the source
Experimental: as §1

[3] = target: T1, human AMHRII (anti-Mullerian hormone …); assay: FACS on Rko cells over-expressing human AMHR2
Experimental: as §1, with “Rko” for “CHO-K1”, “over-expressing” for “over-expressed”, “primary PTM” for “the humanized”

[4] = target: T1, human AMHRII (anti-Mullerian hormone …); assay: FACS on CHO-K1 cells over-expressing human AMHR2; remark: listed apart in the source
Experimental: as §1

Binder	EC50 [1] [pM]	Top (MFI) [1] [MFI]	EC50 [4] [pM]	Top (MFI) [4] [MFI]	other results
108F3D1E9 H3L1 hIgG1 (antibody, V domains shown, Humanized, human IgG1; also called 108F3D1E9 H3L1 hlgG1) VH: QVQLQESGPGLVKPSETLSLTCTVSGYSITSDFAWNWIRQFPGKGLEWMGYISFSGSTSYNPSLKSRITISRDTSKNQFSLKLSSVTAADTAVYYCAGSRYSWFAYWGQGTLVTVSS VL: DIQMTQSPSSLSASVGDRVTITCRASESVDTYGNSFMHWYQQKPGKAPKLLIYRASNLESGVPSRFSGSGSGTDFTLTISSLQPEDFATYYCQQSNEDPYTFGGGTKVEIK	740	65400			
108F3D1E9 H3L2 hIgG1 (antibody, V domains shown, Humanized, human IgG1; also called 108F3D1E9 H3L2 hlgG1) VH: QVQLQESGPGLVKPSETLSLTCTVSGYSITSDFAWNWIRQFPGKGLEWMGYISFSGSTSYNPSLKSRITISRDTSKNQFSLKLSSVTAADTAVYYCAGSRYSWFAYWGQGTLVTVSS VL: DIQLTQSPSSLSASVGDRVTITCRASESVDTYGNSFMHWYQQKPGKPPKLLIYRASNLESGIPSRFSGSGSGTDFTLTISSLQPEDFATYYCQQSNEDPYTFGGGTKVEIK	820	64600			
108F3D1E9 H3L3 hIgG1 (antibody, V domains shown, Humanized, human IgG1; also called 108F3D1E9 H3L3 hlgG1) VH: QVQLQESGPGLVKPSETLSLTCTVSGYSITSDFAWNWIRQFPGKGLEWMGYISFSGSTSYNPSLKSRITISRDTSKNQFSLKLSSVTAADTAVYYCAGSRYSWFAYWGQGTLVTVSS VL: DIVLTQSPSSLSASVGDRVTITCRASESVDTYGNSFMHWYQQKPGQPPKLLIYRASNLESGIPARFSGSGSGTDFTLTISSVQPEDFATYYCQQSNEDPYTFGGGTKVEIK	820	66700			
108F3D1E9 H3L4 hIgG1 (antibody, V domains shown, Humanized, human IgG1; also called 108F3D1E9 H3L4 hlgG1) VH: QVQLQESGPGLVKPSETLSLTCTVSGYSITSDFAWNWIRQFPGKGLEWMGYISFSGSTSYNPSLKSRITISRDTSKNQFSLKLSSVTAADTAVYYCAGSRYSWFAYWGQGTLVTVSS VL: DIVLTQSPSSLSVSVGDRATITCRASESVDTYGNSFMHWYQQKPGQPPKLLIYRASNLESGIPARFSGSGSRTDFTLTISSVQPEDFATYYCQQSNEDPYTFGGGTKLEIK	880	70900			
108F3D1E9 H4L1 hIgG1 (antibody, V domains shown, Humanized, human IgG1; also called 108F3D1E9 H4L1 hlgG1) VH: QVQLQESGPGLVKPSETLSLTCTVSGYSITSDFAWNWIRQFPGKGLEWMGYISFSGSTSYNPSLKSRITISRDTSKNQFFLQLSSVTAEDTAVYYCAGSRYSWFAYWGQGTLVTVSS VL: DIQMTQSPSSLSASVGDRVTITCRASESVDTYGNSFMHWYQQKPGKAPKLLIYRASNLESGVPSRFSGSGSGTDFTLTISSLQPEDFATYYCQQSNEDPYTFGGGTKVEIK	550	64400			
108F3D1E9 H4L2 hIgG1 (antibody, V domains shown, Humanized, human IgG1; also called 108F3D1E9 H4L2 hlgG1) VH: QVQLQESGPGLVKPSETLSLTCTVSGYSITSDFAWNWIRQFPGKGLEWMGYISFSGSTSYNPSLKSRITISRDTSKNQFFLQLSSVTAEDTAVYYCAGSRYSWFAYWGQGTLVTVSS VL: DIQLTQSPSSLSASVGDRVTITCRASESVDTYGNSFMHWYQQKPGKPPKLLIYRASNLESGIPSRFSGSGSGTDFTLTISSLQPEDFATYYCQQSNEDPYTFGGGTKVEIK	680	67900			
108F3D1E9 H4L3 hIgG1 (antibody, V domains shown, Humanized, human IgG1; also called 108F3D1E9 H4L3 hlgG1) VH: QVQLQESGPGLVKPSETLSLTCTVSGYSITSDFAWNWIRQFPGKGLEWMGYISFSGSTSYNPSLKSRITISRDTSKNQFFLQLSSVTAEDTAVYYCAGSRYSWFAYWGQGTLVTVSS VL: DIVLTQSPSSLSASVGDRVTITCRASESVDTYGNSFMHWYQQKPGQPPKLLIYRASNLESGIPARFSGSGSGTDFTLTISSVQPEDFATYYCQQSNEDPYTFGGGTKVEIK	740	67300			
108F3D1E9 H4L4 hIgG1 (antibody, V domains shown, Humanized, human IgG1; also called 108F3D1E9 H4L4 hlgG1) VH: QVQLQESGPGLVKPSETLSLTCTVSGYSITSDFAWNWIRQFPGKGLEWMGYISFSGSTSYNPSLKSRITISRDTSKNQFFLQLSSVTAEDTAVYYCAGSRYSWFAYWGQGTLVTVSS VL: DIVLTQSPSSLSVSVGDRATITCRASESVDTYGNSFMHWYQQKPGQPPKLLIYRASNLESGIPARFSGSGSRTDFTLTISSVQPEDFATYYCQQSNEDPYTFGGGTKLEIK	650	70600			
31D9B3 VH1-VL2.2 hIgG1 (antibody, V domains shown, Humanized, PTM de-risked (VL G(30D)R), human IgG1; also called 31D9B3 VH1-VL2.2 hlgG1) VH: QVQLVQSGAEVKKPGASVKVSCKASGYTFTDYWVSWVRQAPGQGLEWMGEIYPKNGVSNFNEKFKGRVTMTTDTSTSTAYMELRSLRSDDTAVYYCARQRDYWGQGTLVTVSS VL: DVVMTQSPLSLPVTLGQPASISCRSSQSLEYGDRYTYLEWYLQRPGQSPRLLIYGVSNRFSGVPDRFSGSGSGTDFTLKISRVEAEDVGVYYCFQATHDPNTFGQGTKLEIK					EC50 [2]: 485 pM; Top (MFI) [2]: 22400 MFI; EC50 [3]: 915 pM; Top (MFI) [3]: 17200 MFI
31D9B3 VH1.2-VL2 hIgG1 (antibody, V domains shown, Humanized, PTM de-risked (VH G55D), human IgG1; also called 31D9B3 VH1.2-VL2 hlgG1) VH: QVQLVQSGAEVKKPGASVKVSCKASGYTFTDYWVSWVRQAPGQGLEWMGEIYPKNDVSNFNEKFKGRVTMTTDTSTSTAYMELRSLRSDDTAVYYCARQRDYWGQGTLVTVSS VL: DVVMTQSPLSLPVTLGQPASISCRSSQSLEYGDGYTYLEWYLQRPGQSPRLLIYGVSNRFSGVPDRFSGSGSGTDFTLKISRVEAEDVGVYYCFQATHDPNTFGQGTKLEIK			1510	26800	EC50 [3]: 1350 pM; Top (MFI) [3]: 18200 MFI
31D9B3 VH1.2-VL2.1 hIgG1 (antibody, V domains shown, Humanized, PTM de-risked, human IgG1; also called 31D9B3 VH1.2-VL2.1 hlgG1) VH: QVQLVQSGAEVKKPGASVKVSCKASGYTFTDYWVSWVRQAPGQGLEWMGEIYPKNDVSNFNEKFKGRVTMTTDTSTSTAYMELRSLRSDDTAVYYCARQRDYWGQGTLVTVSS VL: DVVMTQSPLSLPVTLGQPASISCRSSQSLEYGSGYTYLEWYLQRPGQSPRLLIYGVSNRFSGVPDRFSGSGSGTDFTLKISRVEAEDVGVYYCFQATHDPNTFGQGTKLEIK			5680	10600	
31D9B3 VH1.2-VL2.2 hIgG1 (antibody, V domains shown, Humanized, PTM de-risked, human IgG1; also called 31D9B3 VH1.2-VL2.2 hlgG1) VH: QVQLVQSGAEVKKPGASVKVSCKASGYTFTDYWVSWVRQAPGQGLEWMGEIYPKNDVSNFNEKFKGRVTMTTDTSTSTAYMELRSLRSDDTAVYYCARQRDYWGQGTLVTVSS VL: DVVMTQSPLSLPVTLGQPASISCRSSQSLEYGDRYTYLEWYLQRPGQSPRLLIYGVSNRFSGVPDRFSGSGSGTDFTLKISRVEAEDVGVYYCFQATHDPNTFGQGTKLEIK			856	22000	EC50 [3]: 878 pM; Top (MFI) [3]: 16300 MFI
31D9B3 VH1.2-VL2.3 hIgG1 (antibody, V domains shown, Humanized, PTM de-risked, human IgG1; also called 31D9B3 VH1.2-VL2.3 hlgG1) VH: QVQLVQSGAEVKKPGASVKVSCKASGYTFTDYWVSWVRQAPGQGLEWMGEIYPKNDVSNFNEKFKGRVTMTTDTSTSTAYMELRSLRSDDTAVYYCARQRDYWGQGTLVTVSS VL: DVVMTQSPLSLPVTLGQPASISCRSSQSLEYGTGYTYLEWYLQRPGQSPRLLIYGVSNRFSGVPDRFSGSGSGTDFTLKISRVEAEDVGVYYCFQATHDPNTFGQGTKLEIK			617	12900	
31D9B3 VH1.3-VL2.1 hIgG1 (antibody, V domains shown, Humanized, PTM de-risked, human IgG1; also called 31D9B3 VH1.3-VL2.1 hlgG1) VH: QVQLVQSGAEVKKPGASVKVSCKASGYTFTDYWVSWVRQAPGQGLEWMGEIYPKNQVSNFNEKFKGRVTMTTDTSTSTAYMELRSLRSDDTAVYYCARQRDYWGQGTLVTVSS VL: DVVMTQSPLSLPVTLGQPASISCRSSQSLEYGSGYTYLEWYLQRPGQSPRLLIYGVSNRFSGVPDRFSGSGSGTDFTLKISRVEAEDVGVYYCFQATHDPNTFGQGTKLEIK			1200	10900	
31D9B3 VH1.3-VL2.3 hIgG1 (antibody, V domains shown, Humanized, PTM de-risked, human IgG1; also called 31D9B3 VH1.3-VL2.3 hlgG1) VH: QVQLVQSGAEVKKPGASVKVSCKASGYTFTDYWVSWVRQAPGQGLEWMGEIYPKNQVSNFNEKFKGRVTMTTDTSTSTAYMELRSLRSDDTAVYYCARQRDYWGQGTLVTVSS VL: DVVMTQSPLSLPVTLGQPASISCRSSQSLEYGTGYTYLEWYLQRPGQSPRLLIYGVSNRFSGVPDRFSGSGSGTDFTLKISRVEAEDVGVYYCFQATHDPNTFGQGTKLEIK			380	12700	
94C4C3 H2L3 hIgG1 (antibody, V domains shown, Humanized, human IgG1; also called 94C4C3 H2L3 hlgG1) VH: QLQLQESGPGLVKPSETLSLTCTVSGYSITSDYAWNWIRQPPGKGLEWMGYISYSGSISYNPSLKSRITISRDTSKNQFSLKLSSVTAADTAVYYCARSRYSWFDYWGQGTLVTVSS VL: EIVLTQSPGTLSLSPGERATLSCSASESVDTYGNSFMHWYQQKPGQPPRLLIYRASSLESGIPVRFSGSGSRTDFTLTISRVEAEDFAVYYCQQSNEDPYTFGGGTKLEIK					EC50 [2]: 1320 pM; Top (MFI) [2]: 55800 MFI
94C4C3 H2L4 hIgG1 (antibody, V domains shown, Humanized, human IgG1; also called 94C4C3 H2L4 hlgG1) VH: QLQLQESGPGLVKPSETLSLTCTVSGYSITSDYAWNWIRQPPGKGLEWMGYISYSGSISYNPSLKSRITISRDTSKNQFSLKLSSVTAADTAVYYCARSRYSWFDYWGQGTLVTVSS VL: DIVLTQSPGTLSVSPGERATLSCSASESVDTYGNSFMHWYQQKPGQPPKLLIYRASSLESGIPVRFSGSGSRTDFTLTISRVEAEDFAVYYCQQSNEDPYTFGGGTKLEIK					EC50 [2]: 1010 pM; Top (MFI) [2]: 52500 MFI
